Among the data in patent publication US20170081398A1 are IC90/IC50 and Tie2 phosphorylation in mouse lung endothelium (immunoprecipitation-Western blot) values, retold here.

For experiment [1], the target named is human angiopoietin-1 (human) (UniProt Q15389). The experiment is described as follows: HTRF; competition with huTie-2-Fc-APC for biotinylated hAng1. (In general: Time-resolved FRET reads energy transfer from a long-lived donor to a nearby acceptor.)
For experiment [2], the target named is human angiopoietin-2 (human) (UniProt O15123). The experiment is described as follows: HTRF; competition with huTie-2-Fc-APC for biotinylated hAng2.
Chain of human angiopoietin-2 (human) (O15123 19-496 limits assumed): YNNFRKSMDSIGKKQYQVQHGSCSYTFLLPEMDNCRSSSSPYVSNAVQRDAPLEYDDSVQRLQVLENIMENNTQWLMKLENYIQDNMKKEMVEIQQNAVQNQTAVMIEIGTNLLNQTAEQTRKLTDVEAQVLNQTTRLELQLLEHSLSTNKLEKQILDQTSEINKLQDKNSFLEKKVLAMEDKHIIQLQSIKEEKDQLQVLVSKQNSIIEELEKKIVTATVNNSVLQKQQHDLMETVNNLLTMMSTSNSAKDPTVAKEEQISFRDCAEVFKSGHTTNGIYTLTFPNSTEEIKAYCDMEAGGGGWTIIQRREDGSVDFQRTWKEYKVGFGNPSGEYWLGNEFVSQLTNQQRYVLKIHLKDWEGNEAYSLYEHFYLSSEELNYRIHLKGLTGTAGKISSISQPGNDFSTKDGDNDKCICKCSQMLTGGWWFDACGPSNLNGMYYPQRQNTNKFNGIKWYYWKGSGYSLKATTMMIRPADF
A further experiment addresses mouse Tie2 (mouse) (UniProt Q02858). In words: cell-based or functional assay.

“And” between values parts separate entries of the source, which are not always exact repeats. Identical values can stand only once.

Chain of human angiopoietin-1 (human) (Q15389 20-498 limits assumed): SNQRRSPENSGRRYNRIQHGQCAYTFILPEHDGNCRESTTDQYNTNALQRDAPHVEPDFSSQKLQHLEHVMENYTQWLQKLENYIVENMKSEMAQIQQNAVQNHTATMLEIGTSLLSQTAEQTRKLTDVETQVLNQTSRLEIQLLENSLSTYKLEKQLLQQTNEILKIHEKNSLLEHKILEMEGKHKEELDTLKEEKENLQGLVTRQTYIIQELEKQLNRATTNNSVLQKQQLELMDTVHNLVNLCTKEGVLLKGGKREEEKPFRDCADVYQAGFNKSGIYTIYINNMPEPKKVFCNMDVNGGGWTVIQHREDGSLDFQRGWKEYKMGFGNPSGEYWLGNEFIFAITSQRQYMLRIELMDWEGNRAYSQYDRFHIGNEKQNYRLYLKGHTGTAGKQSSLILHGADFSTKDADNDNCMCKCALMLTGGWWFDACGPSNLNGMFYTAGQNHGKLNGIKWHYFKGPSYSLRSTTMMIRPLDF
Chain of mouse Tie2 (mouse) (Q02858 23-1122): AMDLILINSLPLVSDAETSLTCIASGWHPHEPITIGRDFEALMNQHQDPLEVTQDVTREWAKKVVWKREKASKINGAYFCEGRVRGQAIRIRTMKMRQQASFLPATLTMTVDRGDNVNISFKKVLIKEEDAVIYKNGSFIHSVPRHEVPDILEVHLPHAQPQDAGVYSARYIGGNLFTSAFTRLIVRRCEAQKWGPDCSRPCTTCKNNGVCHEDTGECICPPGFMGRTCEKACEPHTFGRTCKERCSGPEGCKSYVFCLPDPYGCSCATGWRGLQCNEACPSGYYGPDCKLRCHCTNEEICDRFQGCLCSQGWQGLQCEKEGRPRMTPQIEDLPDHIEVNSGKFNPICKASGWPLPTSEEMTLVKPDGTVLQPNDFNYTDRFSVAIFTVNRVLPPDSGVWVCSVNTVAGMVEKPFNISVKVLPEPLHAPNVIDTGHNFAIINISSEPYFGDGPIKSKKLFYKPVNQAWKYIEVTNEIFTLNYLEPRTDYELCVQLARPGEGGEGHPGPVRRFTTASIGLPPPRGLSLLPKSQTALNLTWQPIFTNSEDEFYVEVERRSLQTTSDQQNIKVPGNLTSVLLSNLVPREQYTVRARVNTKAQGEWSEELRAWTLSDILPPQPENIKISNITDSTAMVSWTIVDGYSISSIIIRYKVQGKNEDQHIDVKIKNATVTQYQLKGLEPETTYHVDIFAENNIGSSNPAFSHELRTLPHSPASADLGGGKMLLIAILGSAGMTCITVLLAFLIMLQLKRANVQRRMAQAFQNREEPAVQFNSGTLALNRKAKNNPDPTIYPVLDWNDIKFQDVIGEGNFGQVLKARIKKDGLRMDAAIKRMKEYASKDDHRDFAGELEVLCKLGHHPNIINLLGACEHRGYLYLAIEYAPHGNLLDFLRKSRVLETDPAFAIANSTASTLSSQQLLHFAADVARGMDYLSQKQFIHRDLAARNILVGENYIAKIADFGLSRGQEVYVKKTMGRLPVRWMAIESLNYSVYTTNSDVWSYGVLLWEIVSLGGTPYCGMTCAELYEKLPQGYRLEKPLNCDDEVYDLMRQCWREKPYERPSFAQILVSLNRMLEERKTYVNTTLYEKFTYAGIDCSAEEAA

On to AMG 386 (Fc fusion), for which the IC90/IC50 in experiment [1] was 41 and 71; in experiment [2] it was 4.1 and 4.4.
In turn, “recombinant Ang1 (R&D Systems Inc.) (ligand)” registered a Tie2 phosphorylation in mouse lung endothelium (immunoprecipitation-Western blot) with mouse Tie2 (mouse) of 5 fold.
